In paper PMC2198949 (The Journal of Experimental Medicine, 1997):

Target: T1, murine 4-1BBL–CD8 fusion protein (mouse, UniProt P41274 104-309)
T1 sequence (looked up): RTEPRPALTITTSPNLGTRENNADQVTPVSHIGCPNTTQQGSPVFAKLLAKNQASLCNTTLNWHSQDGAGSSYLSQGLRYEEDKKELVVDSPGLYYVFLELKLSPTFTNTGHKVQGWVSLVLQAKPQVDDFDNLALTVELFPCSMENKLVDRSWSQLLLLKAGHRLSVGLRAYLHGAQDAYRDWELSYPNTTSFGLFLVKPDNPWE
Experiment: SPR

B1: murine 4-1BB–Ig fusion protein (Fc fusion, mouse, UniProt P20334 22-185, looked up)
chain: GAVQNSCDNCQPGTFCRKYNPVCKSCPPSTFSSIGGQPNCNICRVCAGYFRFKKFCSSTHNAECECIEGFHCLGPQCTRCEKDCRPGQELTKQGCKTCSLGTFNDQNGTGVCRPWTNCSLDGRSVLKTGTTEKDVVCGPPVVSFSPSTTISVTPEGGPGGHSLQ
Which results are given for B1?
Kd: 1.16 nM; koff: 0.000213 s⁻¹; kon: 183000 M⁻¹ s⁻¹
